Laboratory results taken from patent US20260146107A1 (ALLIGATOR BIOSCIENCE, published 2026).
Substitutions are numbered along the chain they refer to.

T1: human CEACAM5, recombinant (R&D Systems #4128-CM-050) (human, UniProt P06731 35-685)
T1 construct: Bought; coated in ELISA and used as monomeric analyte in Octet; also called hCEACAM-5; Human CEACAM5-His; not shown: His tag
T1 sequence (looked up): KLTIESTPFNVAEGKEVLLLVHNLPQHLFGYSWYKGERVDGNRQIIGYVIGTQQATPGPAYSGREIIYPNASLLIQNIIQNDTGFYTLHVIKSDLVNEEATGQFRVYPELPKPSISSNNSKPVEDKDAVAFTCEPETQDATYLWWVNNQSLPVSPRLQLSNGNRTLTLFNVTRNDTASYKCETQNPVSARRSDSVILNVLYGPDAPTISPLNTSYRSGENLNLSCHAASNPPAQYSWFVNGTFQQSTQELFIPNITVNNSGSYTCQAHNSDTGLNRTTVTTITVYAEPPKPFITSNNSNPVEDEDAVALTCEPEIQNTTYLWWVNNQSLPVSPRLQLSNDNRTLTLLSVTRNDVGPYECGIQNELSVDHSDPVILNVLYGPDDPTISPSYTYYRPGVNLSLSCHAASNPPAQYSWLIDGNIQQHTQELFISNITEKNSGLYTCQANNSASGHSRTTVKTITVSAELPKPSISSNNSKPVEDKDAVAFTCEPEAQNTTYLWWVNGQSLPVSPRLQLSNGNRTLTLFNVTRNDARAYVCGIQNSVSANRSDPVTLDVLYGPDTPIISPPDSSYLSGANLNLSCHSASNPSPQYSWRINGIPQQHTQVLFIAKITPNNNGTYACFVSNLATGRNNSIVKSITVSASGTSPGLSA

T2: human CEACAM1, recombinant (R&D Systems #2244-CM-050) (human, UniProt P13688 35-428)
T2 construct: also called hCEACAM-1
T2 sequence (looked up): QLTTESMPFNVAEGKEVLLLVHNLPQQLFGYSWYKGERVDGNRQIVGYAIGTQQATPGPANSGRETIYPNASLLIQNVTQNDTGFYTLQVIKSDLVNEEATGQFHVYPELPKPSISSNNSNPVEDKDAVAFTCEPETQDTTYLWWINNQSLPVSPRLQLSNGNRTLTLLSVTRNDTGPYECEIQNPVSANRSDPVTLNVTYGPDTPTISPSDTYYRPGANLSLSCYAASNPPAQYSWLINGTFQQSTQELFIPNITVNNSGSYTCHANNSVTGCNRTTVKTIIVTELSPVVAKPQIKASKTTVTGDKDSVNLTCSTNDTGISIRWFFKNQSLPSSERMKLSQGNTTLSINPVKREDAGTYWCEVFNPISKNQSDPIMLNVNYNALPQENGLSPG

B1: Multi38 (bispecific antibody)
heavy 1: not shown
light: not shown
heavy 2: EVQLLESGGGLVQPGGSLRLSCAASGFTFGDHAMSWVREAPGKGLEWVSAISGYGHSTGYADSVKGRFTISRDNSKNTLYLQMNSLRAEDTAVYYCARNHYRVGLDYWGQGTLVTVSSASTKGPSVFPLAPSSKSTSGGTAALGCLVKDYFPEPVTVSWNSGALTSGVHTFPAVLQSSGLYSLTSVVEVPSSSLGTQTYICNVNHKPSNTKVDKKVEPKSC
notes: Optimised RUBY format, CD40xCEACAM5 (Fab8); also called Muli38
B2: AC_05096 (antibody, human IgG1, kappa, V domains shown)
VH: EVQLLESGGGLVQPGGSLRLSCAASGFTFSSSYMGWVRQAPGKGLEWVSSIGSGSYSTSYADSVKGRFTISRDNSKNTLYLQMNSLRAEDTAVYYCARYPSVPFRPHLDYWGQGTLVTVSS
VL: DIQMTQSPSSLSASVGDRVTITCRASQSISSYLNWYQQKPGKAPKLLIYAASSLQSGVPSRFSGSGSGTDFTLTISSLQPEDFATYYCQQAGNPHTFGQGTKLEIKR
B3: AC_05083 (antibody, V domains shown)
VH: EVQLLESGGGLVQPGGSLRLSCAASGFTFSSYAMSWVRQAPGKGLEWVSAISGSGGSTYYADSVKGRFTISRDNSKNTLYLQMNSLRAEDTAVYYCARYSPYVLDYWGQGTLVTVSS
VL: DIQMTQSPSSLSASVGDRVTITCRASQSIRGYLNWYQQKPGKAPKLLIYAASSLQSGVPSRFSGSGSGTDFTLTISSLQPEDFATYYCQQPSYPSLFTFGQGTKLEIK
B4: AC_05098 (antibody, V domains shown)
VH: EVQLLESGGGLVQPGGSLRLSCAASGFTFGSYYMSWVRQAPGKGLEWVSGISGYGYYTGYADSVKGRFTISRDNSKNTLYLQMNSLRAEDTAVYYCARNGYGVIDYWGQGTLVTVSS
VL: DIQMTQSPSSLSASVGDRVTITCRASQSIRDYLNWYQQKPGKAPKLLIYAASSLQSGVPSRFSGSGSGTDFTLTISSLQPEDFATYYCQQGTFPFTFGQGTKLEIK
B5: AC_05100 (antibody, V domains shown)
VH: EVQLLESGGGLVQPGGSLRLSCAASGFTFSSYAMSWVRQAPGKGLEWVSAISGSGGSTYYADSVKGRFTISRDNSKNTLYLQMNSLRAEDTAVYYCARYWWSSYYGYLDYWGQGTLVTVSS
VL: B4 VL with R30S, D31S, G91A, T92G, F93N, F95H
B6: AC_05082 (antibody, V domains shown)
VH: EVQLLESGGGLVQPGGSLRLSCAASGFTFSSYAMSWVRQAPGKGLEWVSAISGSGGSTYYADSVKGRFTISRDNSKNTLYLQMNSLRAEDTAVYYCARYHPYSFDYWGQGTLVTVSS
VL: B4 VL with R30S, D31S, G91A, T92G, F93N, F95H
B7: AC_05085 (antibody, V domains shown)
VH: EVQLLESGGGLVQPGGSLRLSCAASGFTFGSYYMYWVRQAPGKGLEWVSSIGGYSGSTYYADSVKGRFTISRDNSKNTLYLQMNSLRAEDTAVYYCARNTPFPGGSGLDYWGQGTLVTVSS
VL: B4 VL with R30S, D31S, G91A, T92G, F93N, F95H
B8: AC_05084 (antibody, V domains shown)
VH: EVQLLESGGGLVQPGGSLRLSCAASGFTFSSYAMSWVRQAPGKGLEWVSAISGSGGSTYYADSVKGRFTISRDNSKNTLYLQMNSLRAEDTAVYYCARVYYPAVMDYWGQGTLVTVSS
VL: B4 VL with R30S, D31S, G91V, T92D, F93G, P94L
B9: AC_05300 (bispecific antibody)
heavy 1: not shown
light: ELVMTQSPSSLTVTAGEKVTMSCKSSQSLLNSGNQKNYLTWYQEKPGQPPKLLIYWASTRESGVPDRFTGSGSGTDFTLTISSVQAEDLAVYYCQNDYSYPLTFGAGTKLEIKRTVAAPSVFIFPPSDEQLKSGTASVVCYLNNFYPREAKVQWKVDNALQSGNSQESVTEQDSKDSTYSLWSTLTLSKADYEKHKVYACEVTHQGLSSPVTKSFNRGEC
heavy 2: EVQLLESGGGLVQPGGSLRLSCAASGFTFSSYAMSWVREAPGKGLEWVSGIGSYGGGTYYADSVKGRFTISRDNSKNTLYLQMNSLRAEDTAVYYCARYVNFGMDYWGQGTLVTVSSASTKGPSVFPLAPSSKSTSGGTAALGCLVKDYFPEPVTVSWNSGALTSGVHTFPAVLQSSGLYSLSSVVEVPSSSLGTQTYICNVNHKPSNTKVDKKVEPKSC
notes: as AC_05293
B10: AC_05330 (bispecific antibody)
heavy 1: not shown
light: not shown
heavy 2: EVQLLESGGGLVQPGGSLRLSCAASGFTFSSYAMSWVREAPGKGLEWVSAISGSGGSTYYADSVKGRFTISRDNSKNTLYLQMNSLRAEDTAVYYCARYYGGYYSAWMDYWGQGTLVTVSSASTKGPSVFPLAPSSKSTSGGTAALGCLVKDYFPEPVTVSWNSGALTSGVHTFPAVLQSSGLYSLSSVVEVPSSSLGTQTYICNVNHKPSNTKVDKKVEPKSC
notes: as AC_05293
B11: AC_05293 (bispecific antibody)
heavy 1: not shown
light: DIQMTQSPSSLSASVGDRVTITCRASQSISSYLNWYQEKPGKAPKLLIYAASSLQSGVPSRFSGSGSGTDFTLTISSLQPEDFATYYCQQYGRNPPTFGQGTKLEIKRTVAAPSVFIFPPSDEQLKSGTASVVCYLNNFYPREAKVQWKVDNALQSGNSQESVTEQDSKDSTYSLWSTLTLSKADYEKHKVYACEVTHQGLSSPVTKSFNRGEC
heavy 2: EVQLLEQSGAELVRPGTSVKISCKASGYAFTNYWLGWVKERPGHGLEWIGDIFPGSGNIHYNEKFKGKATLTADKSSSTAYMQLSSLTFEDSAVYFCARLRNWDEPMDYWGQGTTVTVSSASTKGPSVFPLAPSSKSTSGGTAALGCLVKDYFPEPVTVSWNSGALTSGVHTFPAVLQSSGLYSLSSVVEVPSSSLGTQTYICNVNHKPSNTKVDKKVEPKSC

Biological target: T1, human CEACAM5, recombinant (R&D Systems …)
Test: ELISA, antigen coated at 0.5 µg/mL, bsAb titrated, anti-human kappa-HRP, luminescence
Protocol: 96-well plates were coated with 0.5 μg/mL antigen, hCEACAM-1 (2244-CM-050, R&D Systems), hCEACAM-5 (4128-CM-050, R&D Systems), hCEACAM-6 (3934-CM-050, R&D Systems) or CEACAM-8 (9639-CM-050, R&D Systems) in PBS over night at 4° C. After washing in PBS/0.05% Tween 20 (PBST), the plates were blocked with PBST, 2% BSA for at least 30 minutes at room temperature before a second round of washing. RUBY bsAbs, diluted in PBST, 0.5% BSA, were then added and allowed to bind for at least 1 hour at room temperature. […] Finally, a final round of washing was performed and bound complexes detected using SuperSignal Pico Luminescent as substrate and luminescence signals were measured using Fluostar Optima.

| EC50 (read off the curve) | Binder |
| --- | --- |
| ~2 nM | B1 |

Biological target: T2, human CEACAM1, recombinant (R&D Systems …)
Test: ELISA, antigen coated at 0.5 µg/mL, IgG1 antibody at 10 µg/ml, anti-human kappa-HRP, luminescence
Protocol: (§1) 96-well plates were coated with 0.5 μg/mL antigen, hCEACAM-5 (4128-CM-050, R&D Systems), hCEACAM-1 (2244-CM-050, R&D Systems), hCEACAM-6(3934-CM-050, R&D Systems) or CEACAM-8 (9639-CM-050, R&D Systems) in PBS over night at 4° C. After washing with PBS/0.05% Tween 20 (PBST), the plates were blocked with PBST, 2% BSA for at least 30 minutes at room temperature before a second round of washing. […] After washing, plates were incubated with 50 μl detection antibody (0.5 μg/ml HRP conjugated goat anti human-kappa light chain, #STAR127P, AbD Serotec). Finally, a final round of washing was performed and bound complexes detected using SuperSignal Pico Luminescent as substrate and luminescence signals were measured using Fluostar Optima.

| binding result | Binder |
| --- | --- |
| no binding (tested: 10 µg/ml) | B2 |
| binds | B3 |
| no binding (tested: 10 µg/ml) | B4 |
| no binding (tested: 10 µg/ml) | B5 |
| no binding (tested: 10 µg/ml) | B6 |
| no binding (tested: 10 µg/ml) | B7 |
| no binding (tested: 10 µg/ml) | B8 |

Biological target: T1, human CEACAM5, recombinant (R&D Systems …)
Test: as above
Protocol: as §1

| binding result | Binder |
| --- | --- |
| binds | B2 |
| binds | B3 |
| no binding (tested: 10 µg/ml) | B4 |
| no binding (tested: 10 µg/ml) | B5 |
| no binding (tested: 10 µg/ml) | B6 |
| no binding (tested: 10 µg/ml) | B7 |
| no binding (tested: 10 µg/ml) | B8 |

Biological target: T3, biotinylated human CD40-mouse Fc (Ancell #504-030) (human, UniProt P25942 21-193, biotinylated (site not stated))
T3 construct: Bought; also called hCD40-muIg; CD40mFc-biotin; not shown: mouse Ig Fc
Test: Octet BLI, captured CD40mFc-biotin, bsAb in solution, 1:1 fit
Protocol: Kinetic measurements were performed in the Octet RED96 platform using several different setups. […] Monomeric human CD40-His-Avi tag (Acro Biosystems #CD0-H5228), monomeric Human CEACAM5-His (R&D Systems #4128-CM-050) or monomeric Cynomolgus CEACAM5-His (Sino Biological #90891-C08H) were ½ serially diluted in 1× kinetic buffer (Sartorius) starting at 500 nM or 100 nM. […] Binding kinetics was studied in 1× kinetic buffer where association was allowed for 100 sec, 300 sec or 600 sec followed by dissociation for 100 sec, 300 sec or 3600 sec. Sensor tips were regenerated with 10 mM Glycine pH 1.7. Data generated were referenced by subtracting blank or parallel buffer blank, the baseline was aligned to the y-axis, inter-step correction by alignment against dissociation was performed and the data was smoothed by Savitzky-Golay filter in the data analysis software (v9.0.0.14). The processed data was fitted using a 1:1 Langmuir binding model with R² or X² as a measurement of fitting accuracy.
TABLE 12 Summary of kinetic profiles measured in Octet. Bispecific antibodies in solution (25-0.8 nM, 10-2 or 5-0.7 nM.) interacting with captured CD40mFc-biotin. Association was measured for 300 sec or 600 sec and dissociation was measured for 300 sec or 3600 sec

T3 sequence (P25942 21-193): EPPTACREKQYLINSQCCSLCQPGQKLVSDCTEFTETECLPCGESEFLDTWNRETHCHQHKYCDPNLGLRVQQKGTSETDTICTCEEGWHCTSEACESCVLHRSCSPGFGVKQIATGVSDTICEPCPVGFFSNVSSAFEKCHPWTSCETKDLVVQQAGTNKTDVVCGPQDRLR

| Kd | koff | kon | Binder |
| --- | --- | --- | --- |
| 8.5 nM | 0.0046 s⁻¹ | 540000 M⁻¹ s⁻¹ | B9 |
| 0.45 nM | 1.6e-05 s⁻¹ | 35000 M⁻¹ s⁻¹ | B10 |
| 76 nM | 0.00062 s⁻¹ | 8300 M⁻¹ s⁻¹ | B11 |
